The record followed here is patent US20100298227A1 (published 2010).

For experiment [1], the target named is Detergent-soluble HLA-DR1 purified from LG-2 cells (DRB1*0101) (human).
The target in experiment [2] is Detergent-soluble HLA-DR2 purified from MGAR cells (DRB1*1501) (human).
For experiment [3], the target named is Detergent-soluble HLA-DR4 purified from Priess cells (DRB1*0401) (human).
For experiment [4], the target named is Detergent-soluble HLA-DR1 purified from LG-2 cells (DRB1*0101) (human). In words: competition with biotinylated TAL for purified HLA-DR; competitor TAL.
The target in experiment [5] is Detergent-soluble HLA-DR2 purified from MGAR cells (DRB1*1501) (human). The experiment is described as above.
In experiment [6] the target is Detergent-soluble HLA-DR4 purified from Priess cells (DRB1*0401) (human). Described as above.

For Copolymer 1, the IC50 (usually the midpoint of a concentration-inhibition curve) in experiment [1] was determined as 8.8 µM; in experiment [2], 10.1 µM; in experiment [3], 10.8 µM. The Kd – broadly, the concentration at which binding is half-saturated – in experiment [1] is 0.074 µM; in experiment [2], 0.082 µM; in experiment [3], 0.015 µM.
As for “GTL terpolymer (SD-1697), poly[L-Tyr 0.162, L-Glu 0.259, L-Lys 0.579]”, the IC50 in experiment [1] was found to be 43 µM; in experiment [2], 25.4 µM; in experiment [3], 43 µM. Besides, the Kd was 0.004 µM in experiment [1] and 0.008 µM in experiment [3].
As for “GAL terpolymer (SD-1689), poly[L-Glu 0.153, L-Ala 0.479, L-Lys 0.365]”, the IC50 in experiment [1], in experiment [2] and in experiment [3] was below 1000 µM in each case. Besides, the Kd worked out at 0.017 µM in experiment [2] and 0.003 µM in experiment [3].
“TGA terpolymer (SD-1690), poly[L-Tyr 0.136, L-Glu 0.21, L-Ala 0.648]”: the IC50 in experiment [1] is 1.3 µM; in experiment [2], 9.5 µM; in experiment [3], 1 µM. For the same molecule, the Kd in experiment [1] worked out at 0.01 µM; in experiment [2] it was 0.008 µM; in experiment [3], 0.008 µM.
As for “TAL terpolymer (SD-1691), poly[L-Tyr 0.102, L-Ala 0.542, L-Lys 0.353]”, the IC50 in experiment [1] was 3.3 µM. In experiment [2], this molecule had an IC50 of 2.7 µM and a Kd of 0.017 µM.

B1: bacterial superantigen SEA (other)
chain: SEKSEEINEKDLRKKSELQGTALGNLKQIYYYNEKAKTENKESHDQFLQHTILFKGFFTDHSWYNDLLVDFDSKDIVDKYKGKKVDLYGAYYGYQCAGGTPNKTACMYGGVTLHDNNRLTEEKKVPINLWLDGKQNTVPLETVKTNKKNVTVQELDLQARRYLQEKYNLYNSDVFDGKVQRGLIVFHTSTEPSVNYDLFGAQGQYSNTLLRIYRDNKTINSENMHIDIYLYTS
B1: the “fold amount of superantigen needed to inhibit TAL binding” value (shortened to “fold amount … to inhibit TAL binding”) in experiment [4], in experiment [5] and in experiment [6] was 50 fold in each case.

B2: bacterial superantigen TSST-1 (other)
chain: STNDNIKDLLDWYSSGSDTFTNSEVLDNSLGSMRIKNTDGSISLIIFPSPYYSPAFTKGEKVDLNTKRTKKSQHTSEGTYIHFQISGVTNTEKLPTPIELPLKVKVHGKDSPLKYGPKFDKKQLAISTLDFEIRHQLTQIHGLYRSSDKTGGYWKITMNDGSTYQSDLSKKFEYNTEKPPINIDEIKTIEAEIN
On to B2, for which the “fold amount … to inhibit TAL binding” value in experiment [4], in experiment [5] and in experiment [6] was 50 fold in each case.

B3: bacterial superantigen SEB (other)
chain: ESQPDPKPDELHKSSKFTGLMENMKVLYDDNHVSAINVKSIDQFLYFDLIYSIKDTKLGNYDNVRVEFKNKDLADKYKDKYVDVFGANYYYQCYFSKKTNDINSHQTDKRKTCMYGGVTEHNGNQLDKYRSITVRVFEDGKNLLSFDVQTNKKKVTAQELDYLTRHYLVKNKKLYEFNNSPYETGYIKFIENENSFWYDMMPAPGDKFDQSKYLMMYNDNKMVDSKDVKIEVYLTTKKK
Regarding B3, the “fold amount … to inhibit TAL binding” value in experiment [4], in experiment [5] and in experiment [6] was 50 fold throughout.
